Experimental findings from patent publication US20240141072A1 (published 2024) are described below.

Residue numbers refer to the chain shown, from its start.

First the molecules themselves.
B1: 3F03 anti-DLL3 trispecific protein (other)
chain: EVQLVESGGGLVQPGGSLTLSCAASGSSVSFLSMAWYRQAPGKKRELVAGISADGSTDYIDSVKGRFTISRDNAKNSVYLQMNSLRAEDTAVYYCYAYRWRTRYTYWGQGTLVTVSS
notes: not shown: linker 1808, anti-albumin sdAb, linker 1808, anti-CD3 fragment, His6 1819
B2: 3A01 anti-DLL3 trispecific protein (other)
chain: B1 chain with S30K, R101T, T102R
notes: as for B1
B3: 3B05 anti-DLL3 trispecific protein (other)
chain: B1 chain with A23V, S30K, D58T, R101T, Y104R
notes: as for B1
B4: 3A08 anti-DLL3 trispecific protein (other)
chain: B1 chain with S30G, D61R
notes: as for B1
B5: 3A09 anti-DLL3 trispecific protein (other)
chain: B1 chain with T57V, R101T, T105I
notes: as for B1
B6: 3A03 anti-DLL3 trispecific protein (other)
chain: B1 chain with S28R, A53R, R101T, Y104R
notes: as for B1
B7: 3B06 anti-DLL3 trispecific protein (other)
chain: B1 chain with S27K, A53K, R101T
notes: as for B1
B8: 3B04 anti-DLL3 trispecific protein (other)
chain: B1 chain with S28N, D54R, R99H, R101T
notes: as for B1
B9: 3B02 anti-DLL3 trispecific protein (other)
chain: B1 chain with S30Q, D61N
notes: as for B1
B10: 3A05 anti-DLL3 trispecific protein (other)
chain: B1 chain with A53E, D54A
notes: as for B1
B11: 3A04 anti-DLL3 trispecific protein (other)
chain: B1 chain with S28Q, A53R, R101T, T105I
notes: as for B1
B12: 3B01 anti-DLL3 trispecific protein (other)
chain: B1 chain with A53G, R101T
notes: as for B1
B13: 3A010 anti-DLL3 trispecific protein (other)
chain: B1 chain with S28R, D58L, R101T, Y104R
notes: as for B1
B14: 3A06 anti-DLL3 trispecific protein (other)
chain: B1 chain with S21R, S28K, I60V, R101T, T102R
notes: as for B1
B15: 2G011 anti-DLL3 trispecific protein (other)
chain: EVQLVESGGGLVQPGGSLTLSCVASGSTSSINAMGWYRRAPGKQRELPAGISRDGSKVYADSVKGRFTISRDNAKNSVYLQMNSLRAEDTAVYYCYYFRYVSGSSMRYWGQGTLVTVSS
notes: as for B1
B16: 2H06 anti-DLL3 trispecific protein (other)
chain: B15 chain with S30T, P48V, R53S, Y100T, V101A
notes: as for B1
B17: 2H07 anti-DLL3 trispecific protein (other)
chain: B15 chain with M34V, P48V, R53S, K57T, Y100T, S104H
notes: as for B1
B18: 2H011 anti-DLL3 trispecific protein (other)
chain: B15 chain with S30R, P48V, R53S, Y100R
notes: as for B1
B19: 2H03 anti-DLL3 trispecific protein (other)
chain: B15 chain with G35A, P48V, R53S, Y100Q
notes: as for B1
B20: 2H010 anti-DLL3 trispecific protein (other)
chain: B15 chain with P48A, R53S, V58L, Y100T
notes: as for B1
B21: 2H08 anti-DLL3 trispecific protein (other)
chain: B15 chain with P48A, R53K, V63A, Y100T, M106S
notes: as for B1
B22: 2H04 anti-DLL3 trispecific protein (other)
chain: B15 chain with P48V, R53S, G55T, Y100T, S105Y
notes: as for B1

The test deals with T1, biotinylated human DLL3 protein expressed as a human IgG1 fusion protein (human, UniProt Q9NYJ7 27-492, limits assumed, biotinylated).
T1 sequence: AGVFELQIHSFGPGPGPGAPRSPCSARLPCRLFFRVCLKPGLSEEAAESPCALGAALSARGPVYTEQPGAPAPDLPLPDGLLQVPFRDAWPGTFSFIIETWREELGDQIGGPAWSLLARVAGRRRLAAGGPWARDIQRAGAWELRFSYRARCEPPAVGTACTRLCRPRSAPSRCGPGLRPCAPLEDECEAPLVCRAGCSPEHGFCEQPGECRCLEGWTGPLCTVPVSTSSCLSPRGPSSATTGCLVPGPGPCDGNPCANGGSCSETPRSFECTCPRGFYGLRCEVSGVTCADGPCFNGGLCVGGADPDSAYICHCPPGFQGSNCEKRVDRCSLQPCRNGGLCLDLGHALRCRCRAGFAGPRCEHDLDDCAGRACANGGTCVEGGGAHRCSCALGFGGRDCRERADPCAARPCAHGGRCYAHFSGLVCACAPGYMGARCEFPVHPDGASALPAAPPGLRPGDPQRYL
The test is described as follows: Octet BLI, single 50 nM. The gist of the method: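 Read-out is binding affinity to human DLL3. Conditioned medium containing a known amount of each trispecific protein was run against the immobilised biotinylated DLL3 fusion.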
Turning to B1, the Kd was 13 nM.
For B2, the dissociation constant (Kd) was determined as 16 nM. The Kd values of the last two molecules are within 1.5-fold of each other.
Molecule B3 displayed a Kd of 7.2 nM. This Kd is about 2.2-fold lower than that of the molecule before.
To B4 belongs 12 nM; to B5, 6.3 nM.
To B6 belongs 12 nM.
The result for B7 reads 15 nM; that for B8, 24 nM; that for B9, 12 nM.
As to B10, the Kd was found to be 15 nM. The Kd values of the last two molecules are within 1.5-fold of each other.
The result for B11 reads 9.2 nM; that for B12, 10 nM; that for B13, 12 nM.
To B14 belongs 16 nM.
B15 yielded a dissociation constant (Kd) of 13 nM.
In the case of B16, the Kd was found to be 7.9 nM.
The result for B17 reads 6.1 nM; that for B18, 5 nM.
B19 had a Kd of 5.3 nM.
Turning to B20, the Kd turned out to be 6.4 nM.
The result for B21 reads 18 nM; that for B22, 6.3 nM.
